Results as given in patent US10196657B2, “Methods of producing 7-carbon chemicals via methyl-ester shielded carbon chain elongation” (INVISTA North America S.á r.l., priority 2012, dated 2019).

Tests used:
[1] = Haywood et al. 1988; Slater et al. 1998; cited from earlier work
[2] = ω-transaminase activity assay, 7-aminoheptanol to 7-oxoheptanol; type: biochemical
Method: A nucleotide sequence encoding an N-terminal His-tag was added to the Chromobacterium violaceum, Pseudomonas syringae and Rhodobacter sphaeroides genes encoding the ω-transaminases of SEQ ID NOs: 8, 10 and 11, respectively (see FIGS. 7F and 7G) such that N-terminal HIS tagged ω-transaminases could be produced. The modified genes were cloned into a pET21a expression vector under the T7 promoter. Each expression vector was transformed into a BL21[DE3] E. coli host. Each resulting recombinant E. coli strain were cultivated at 37° C. in a 250 mL shake flask culture containing 50 mL LB media and antibiotic selection pressure, with shaking at 230 rpm. Each culture was induced overnight at 16° C. using 1 mM IPTG.
(§1) The pellet from each induced shake flask culture was harvested via centrifugation. Each pellet was resuspended and lysed via sonication. The cell debris was separated from the supernatant via centrifugation and the cell free extract was used immediately in enzyme activity assays.
(§2) Enzyme activity assays in the reverse direction (i.e., 7-aminoheptanol to 7-oxoheptanol) were performed in a buffer composed of a final concentration of 50 mM HEPES buffer (pH=7.5), 10 mM 7-aminoheptanol, 10 mM pyruvate, and 100 μM pyridoxyl 5′ phosphate. Each enzyme activity assay reaction was initiated by adding cell free extract of the ω-transaminase gene product or the empty vector control to the assay buffer containing the 7-aminoheptanol and then incubated at 25° C. for 4 h, with shaking at 250 rpm. The formation of L-alanine was quantified via RP-HPLC.

[3] = ω-transaminase activity assay, forward direction (pimelate semialdehyde to 7-aminoheptanoate); type: biochemical; settings: concluded from reversibility of the ω-transaminase activity
Method: (§3) A sequence encoding an N-terminal His-tag was added to the genes from Chromobacterium violaceum, Pseudomonas syringae, Rhodobacter sphaeroides, and Vibrio Fluvialis encoding the ω-transaminases of SEQ ID NOs: 8, 10, 11 and 13, respectively (see FIGS. 7F and 7G) such that N-terminal HIS tagged ω-transaminases could be produced. Each of the resulting modified genes was cloned into a pET21a expression vector under control of the T7 promoter and each expression vector was transformed into a BL21[DE3] E. coli host. The resulting recombinant E. coli strains were cultivated at 37° C. in a 250 mL shake flask culture containing 50 mL LB media and antibiotic selection pressure, with shaking at 230 rpm. Each culture was induced overnight at 16° C. using 1 mM IPTG.
as §1
Enzyme activity in the forward direction (i.e., pimelate semialdehyde to 7-aminoheptanoate) was confirmed for the transaminases of SEQ ID NO 10, SEQ ID NO 11 and SEQ ID NO 13. Enzyme activity assays were performed in a buffer composed of a final concentration of 50 mM HEPES buffer (pH=7.5), 10 mM pimelate semialdehyde, 10 mM L-alanine and 100 μM pyridoxyl 5′ phosphate. Each enzyme activity assay reaction was initiated by adding a cell free extract of the ω-transaminase gene product or the empty vector control to the assay buffer containing the pimelate semialdehyde and incubated at 25° C. for 4 h, with shaking at 250 rpm. The formation of pyruvate was quantified via RP-HPLC.

[4] = Kaulmann et al., 2007; cited from earlier work
[5] = ω-transaminase activity assay, reverse direction (7-aminoheptanoate to pimelate semialdehyde); type: biochemical; settings: cell free extract, 10 mM 7-aminoheptanoate, 10 mM pyruvate, 25° C., 4 h; against empty vector control; FIG. 15
Method: as §3, §1
as §2, with “7-aminoheptanoate” for “7-aminoheptanol”, “pimelate semialdehyde)” for “7-oxoheptanol)”, “7-aminoheptanoate,” for “7-aminoheptanol,”, “pyruvate” for “pyruvate,”, “and” for “and then”, “L-alanine from pyruvate” for “L-alanine”

[6] = Samsonova et al., 2003; cited from earlier work
[7] = Carboxylate reductase activity assay, pimelate to pimelate semialdehyde (NADPH consumption); type: biochemical; settings: purified enzyme enhanced by sfp gene product, 2 mM pimelate, room temperature, 20 min; against empty vector control; FIG. 10
Method: A sequence encoding a HIS-tag was added to the genes from Segniliparus rugosus and Segniliparus rotundus that encode the carboxylate reductases of SEQ ID NOs: 4 and 7, respectively (see FIGS. 7C and 7F), such that N-terminal HIS tagged carboxylate reductases could be produced. Each of the modified genes was cloned into a pET Duet expression vector along with a sfp gene encoding a HIS-tagged phosphopantetheine transferase from Bacillus subtilis, both under the T7 promoter. Each expression vector was transformed into a BL21[DE3] E. coli host and the resulting recombinant E. coli strains were cultivated at 37° C. in a 250 mL shake flask culture containing 50 mL LB media and antibiotic selection pressure, with shaking at 230 rpm. Each culture was induced overnight at 37° C. using an auto-induction media.
The pellet from each induced shake flask culture was harvested via centrifugation. Each pellet was resuspended and lysed via sonication, and the cell debris was separated from the supernatant via centrifugation. […]
Enzyme activity assays (i.e., from pimelate to pimelate semialdehyde) were performed in triplicate in a buffer composed of a final concentration of 50 mM HEPES buffer (pH=7.5), 2 mM pimelate, 10 mM MgCl2, 1 mM ATP and 1 mM NADPH. […] The consumption of NADPH was monitored by absorbance at 340 nm.

B1: β-ketothiolase encoded by bktB from Cupriavidus necator: β-ketothiolase classified under EC 2.3.1.16, gene product of bktB (protein, UniProt Q0KBP1 1-394, looked up)
Beta-ketothiolase BktB: MTREVVVVSGVRTAIGTFGGSLKDVAPAELGALVVREALARAQVSGDDVGHVVFGNVIQTEPRDMYLGRVAAVNGGVTINAPALTVNRLCGSGLQAIVSAAQTILLGDTDVAIGGGAESMSRAPYLAPAARWGARMGDAGLVDMMLGALHDPFHRIHMGVTAENVAKEYDISRAQQDEAALESHRRASAAIKAGYFKDQIVPVVSKGRKGDVTFDTDEHVRHDATIDDMTKLRPVFVKENGTVTAGNASGLNDAAAAVVMMERAEAERRGLKPLARLVSYGHAGVDPKAMGIGPVPATKIALERAGLQVSDLDVIEANEAFAAQACAVTKALGLDPAKVNPNGSGISLGHPIGATGALITVKALHELNRVQGRYALVTMCIGGGQGIAAIFERI
In the case of B1, the “substrates accepted, forming the CoA-activated C7 aliphatic backbone” value [1] is given as “accepts propanoyl-CoA and pentanoyl-CoA as substrates”.

B2: SEQ ID NO 8: Chromobacterium violaceum ω-transaminase, Genbank Accession No. AAQ59697.1 (protein, listed as Chromobacterium violaceum)
chain: MQKQRTTSQWRELDAAHHLHPFTDTASLNQAGARVMTRGEGVYLWDSEGNKIIDGMAGLWCVNVGYGRKDFAEAARRQMEELPFYNTFFKTTHPAVVELSSLLAEVTPAGFDRVFYTNSGSESVDTMIRMVRRYWDVQGKPEKKTLIGRWNGYHGSTIGGASLGGMKYMHEQGDLPIPGMAHIEQPWWYKHGKDMTPDEFGVVAARWLEEKILEIGADKVAAFVGEPIQGAGGVIVPPATYWPEIERICRKYDVLLVADEVICGFGRTGEWFGHQHFGFQPDLFTAAKGLSSGYLPIGAVFVGKRVAEGLIAGGDFNHGFTYSGHPVCAAVAHANVAALRDEGIVQRVKDDIGPYMQKRWRETFSRFEHVDDVRGVGMVQAFTLVKNKAKRELFPDFGEIGTLCRDIFFRNNLIMRACGDHIVSAPPLVMTRAEVDEMLAVAERCLEEFEQTLKARGLA
With B2 the “acceptance of 7-aminoheptanol as substrate (formation of L-alanine, RP-HPLC)” value ([2]; cell free extract, 10 mM 7-aminoheptanol, 10 mM pyruvate, 25° C., 4 h, against empty vector control, FIG. 19) was “accepted 7-aminoheptanol as substrate”, the “acceptance of 7-oxoheptanol as substrate, forming 7-aminoheptanol (concluded from reversibility)” value ([2]; concluded from reversibility of the ω-transaminase activity (Example 2)) was “accept 7-oxoheptanol as substrate” and the “acceptance of pimelate semialdehyde as substrate, synthesizing 7-aminoheptanoate (conclusion from confirmed reversibility)” value [3] was “accepted pimelate semialdehyde as substrate”. For the same molecule, the “activity accepting 6-aminohexanoic acid as amino donor” value [4] was “accepting 6-aminohexanoic acid as amino donor” and the “acceptance of 7-aminoheptanoate as substrate (formation of L-alanine from pyruvate, RP-HPLC)” value [5] was “accepted 7-aminoheptanote as substrate”.

B3: SEQ ID NO 12: Escherichia coli diamine ω-transaminase, Genbank Accession No. AAA57874.1 (protein, listed as Escherichia coli)
chain: MNRLPSSASALACSAHALNLIEKRTLDHEEMKALNREVIEYFKEHVNPGFLEYRKSVTAGGDYGAVEWQAGSLNTLVDTQGQEFIDCLGGFGIFNVGHRNPVVVSAVQNQLAKQPLHSQELLDPLRAMLAKTLAALTPGKLKYSFFCNSGTESVEAALKLAKAYQSPRGKFTFIATSGAFHGKSLGALSATAKSTFRKPFMPLLPGFRHVPFGNIEAMRTALNECKKTGDDVAAVILEPIQGEGGVILPPPGYLTAVRKLCDEFGALMILDEVQTGMGRTGKMFACEHENVQPDILCLAKALGGGVMPIGATIATEEVFSVLFDNPFLHTTTFGGNPLACAAALATINVLLEQNLPAQAEQKGDMLLDGFRQLAREYPDLVQEARGKGMLMAIEFVDNEIGYNFASEMFRQRVLVAGTLNNAKTIRIEPPLTLTIEQCELVIKAARKALAAMRVSVEEA
In the case of B3, the diamine substrate range [6] is listed as “accepts a broad range of diamine carbon chain length substrates”.

B4: SEQ ID NO 4: Segniliparus rugosus carboxylate reductase, Genbank Accession No. EFV11917.1 (protein, listed as Segniliparus rugosus)
chain: MGDGEERAKRFFQRIGELSATDPQFAAAAPDPAVVEAVSDPSLSFTRYLDTLMRGYAERPALAHRVGAGYETISYGELWARVGAIAAAWQADGLAPGDFVATVGFTSPDYVAVDLAAARSGLVSVPLQAGASLAQLVGILEETEPKVLAASASSLEGAVACALAAPSVQRLVVFDLRGPDASESAADERRGALADAEEQLARAGRAVVVETLADLAARGEALPEAPLFEPAEGEDPLALLIYTSGSTGAPKGAMYSQRLVSQLWGRTPVVPGMPNISLHYMPLSHSYGRAVLAGALSAGGTAHFTANSDLSTLFEDIALARPTFLALVPRVCEMLFQESQRGQDVAELRERVLGGRLLVAVCGSAPLSPEMRAFMEEVLGFPLLDGYGSTEALGVMRNGIIQRPPVIDYKLVDVPELGYRTTDKPYPRGELCIRSTSLISGYYKRPEITAEVFDAQGYYKTGDVMAEIAPDHLVYVDRSKNVLKLSQGEFVAVAKLEAAYGTSPYVKQIFVYGNSERSFLLAVVVPNAEVLGARDQEEAKPLIAASLQKIAKEAGLQSYEVPRDFLIETEPFTTQNGLLSEVGKLLRPKLKARYGEALEARYDEIAHGQADELRALRDGAGQRPVVETVVRAAVAISGSEGAEVGPEANFADLGGDSLSALSLANLLHDVFEVEVPVRIIIGPTASLAGIAKHIEAERAGASAPTAASVHGAGATRIRASELTLEKFLPEDLLAAAKGLPAADQVRTVLLTGANGWLGRFLALEQLERLARSGQDGGKLICLVRGKDAAAARRRIEETLGTDPALAARFAELAEGRLEVVPGDVGEPKFGLDDAAWDRLAEEVDVIVHPAALVNHVLPYHQLFGPNVVGTAEIIRLAITAKRKPVTYLSTVAVAAGVEPSSFEEDGDIRAVVPERPLGDGYANGYGNSKWAGEVLLREAHELVGLPVAVFRSDMILAHTRYTGQLNVPDQFTRLVLSLLATGIAPKSFYQQGAAGERQRAHYDGIPVDFTAEAITTLGAEPSWFDGGAGFRSFDVFNPHHDGVGLDEFVDWLIEAGHPISRIDDHKEWFARFETAVRGLPEAQRQHSLLPLLRAYSFPHPPVDGSVYPTGKFQGAVKAAQVGSDHDVPHLGKALIVKYADDLKALGLL
In the case of B4, the “acceptance of pimelate as substrate (NADPH consumption, absorbance at 340 nm)” value [7] is reported as “accepted pimelate as substrate”.
